Data on four molecules can be found in publication PMC6596994 (Nature, 2019).

Numbering of substitutions follows the chain as printed. Numbers in names are those of the source.

For series [1], the target named is T1, human STING CTT (residue 342 to 379, V343W), crystallised (human, UniProt Q86WV6 342-379, V343W).
T1 chain: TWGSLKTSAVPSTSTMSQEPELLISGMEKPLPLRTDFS
Nature of the series: crystal structure.

Series [2] concerns the molecule itself. Nature of the series: crystal structure.
The target of series [3] is T2, human IRF-3 (residue 189–427) (human, UniProt Q14653 189-427).
T2 sequence: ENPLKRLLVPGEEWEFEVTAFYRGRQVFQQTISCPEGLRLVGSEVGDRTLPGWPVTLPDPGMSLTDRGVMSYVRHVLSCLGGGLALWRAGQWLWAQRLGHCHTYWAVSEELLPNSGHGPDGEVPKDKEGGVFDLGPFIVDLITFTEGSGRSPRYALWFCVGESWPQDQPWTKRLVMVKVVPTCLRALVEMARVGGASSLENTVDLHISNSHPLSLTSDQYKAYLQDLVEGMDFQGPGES
Nature of the series: SPR. In general terms: In SPR one partner is held on a chip, and binding of the other changes the refractive index at the surface.

The target in series [4] is T3, Human TBK1 (residue 1–657, S172E, D135N) (human, UniProt Q9UHD2 1-657, S172E | D135N).
T3 sequence: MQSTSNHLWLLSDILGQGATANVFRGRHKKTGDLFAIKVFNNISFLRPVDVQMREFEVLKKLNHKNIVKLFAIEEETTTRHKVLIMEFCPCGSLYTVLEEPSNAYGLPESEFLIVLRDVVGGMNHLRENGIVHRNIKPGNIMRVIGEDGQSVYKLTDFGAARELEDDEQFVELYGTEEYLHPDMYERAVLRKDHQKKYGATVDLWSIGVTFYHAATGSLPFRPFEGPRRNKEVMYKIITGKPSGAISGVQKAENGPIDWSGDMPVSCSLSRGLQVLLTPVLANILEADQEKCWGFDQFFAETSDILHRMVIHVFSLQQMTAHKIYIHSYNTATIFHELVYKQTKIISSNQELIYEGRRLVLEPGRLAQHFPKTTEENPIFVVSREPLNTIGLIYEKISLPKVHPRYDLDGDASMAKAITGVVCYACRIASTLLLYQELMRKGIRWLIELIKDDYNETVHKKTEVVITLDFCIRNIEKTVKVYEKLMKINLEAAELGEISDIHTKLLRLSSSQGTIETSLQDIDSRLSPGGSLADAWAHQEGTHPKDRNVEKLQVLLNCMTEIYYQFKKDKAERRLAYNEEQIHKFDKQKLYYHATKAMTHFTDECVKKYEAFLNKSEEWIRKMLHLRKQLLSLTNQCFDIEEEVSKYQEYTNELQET
Nature of the series: crystal structure.

Series [5] concerns the target hSTING (155–379) L372A (human, UniProt Q86WV6 155-379, L372A, biotin on the Avi tag). Nature of the series: SPR.
For series [6], the target named is hSTING (155–379) P373A (human, UniProt Q86WV6 155-379, P373A, biotin on the Avi tag). Description: SPR.

B1: Mouse TBK1 (1–657, S172A) (domain or fragment)
chain: MQSTSNHLWLLSDILGQGATANVFRGRHKKTGDLYAVKVFNNISFLRPVDVQMREFEVLKKLNHKNIVKLFAIEEETTTRHKVLIMEFCPCGSLYTVLEEPSNAYGLPESEFLIVLRDVVGGMNHLRENGIVHRDIKPGNIMRVIGEDGQSVYKLTDFGAARELEDDEQFVALYGTEEYLHPDMYERAVLRKDHQKKYGATVDLWSVGVTFYHAATGSLPFRPFEGPRRNKEVMYKIITGKPSGAISGVQKAENGPIDWSGDMPLSCSLSQGLQALLTPVLANILEADQEKCWGFDQFFAETSDVLHRMVIHVFSLQHMTAHKIYIHSYNTAAVFHELVYKQTKIVSSNQELIYEGRRLVLELGRLAQHFPKTTEENPIFVTSREQLNTVGLRYEKISLPKIHPRYDLDGDASMAKAVTGVVCYACRTASTLLLYQELMRKGVRWLVELVKDDYNETVHKKTEVVITLDFCIRNIEKTVKVYEKLMKVNLEAAELGEISDIHTKLLRLSSSQGTIESSLQDISSRLSPGGLLADTWAHQEGTHPRDRNVEKLQVLLNCITEIYYQFKKDKAERRLAYNEEQIHKFDKQKLYYHATKAMSHFSEECVRKYEAFKDKSEEWMRKMLHLRKQLLSLTNQCFDIEEEVSKYQDYTNELQET
One may read the stoichiometry N as the number of molecules, sites or subunits per partner or assembly. Consider B1, for which the “stoichiometry N” value in series [1] was 1 TBK1 chain per STING peptide (2:2); in series [2] it was 2.

B2: hSTING (155–379) L374A (domain or fragment)
chain: VAHGLAWSYYIGYLRLILPELQARIRTYNQHYNNLLRGAVSQRLYILLPLDCGVPDNLSMADPNIRFLDKLPQQTGDHAGIKDRVYSNSIYELLENGQRAGTCVLEYATPLQTLFAMSQYSQAGFSREDRLEQAKLFCRTLEDILADAPESQNNCRLIAYQEPADDSSFSLSQEVLRHLRQEEKEEVTVGSLKTSAVPSTSTMSQEPELLISGMEKPLPARTDFS
modifications: biotin on the Avi tag
As to B2, in series [3], the binding result was “binds”.

B3: human STING CTD (residues 155 to 379, T376E, F378M, S379W), crystallised (domain or fragment)
chain: B2 chain with A220L, T222E, F224M, S225W
Regarding B3, the binding result in series [4] is on record as “binds”.

B4: Human TBK1 (1–657, S172A) (domain or fragment)
chain: T3 sequence with N135D, E172A
As to B4, the “fold reduction of the binding affinity against wild type STING” value in series [5] and in series [6] was approximately 10 fold throughout.
